This passage reports Kd, koff and kon results from patent US20240417458A1 (DISC MEDICINE, published 2024).

Where “and” joins values, the source holds several entries; their conditions need not be identical. Identical values can stand only once.

For one test, the target named is T1, FcRn.
T1 construct: also called neonatal Fc receptor
Briefly: SPR (BIAcore) at pH 6.0. (In general: Surface plasmon resonance follows binding to a sensor surface in real time, without labels.)

The target of another test is T2, soluble human RGMa (human, UniProt Q96B86 48-422, limits assumed).
T2 construct: Soluble antigen in BIAcore; also called huRGMa; repulsive guidance molecule A
T2 sequence (looked up): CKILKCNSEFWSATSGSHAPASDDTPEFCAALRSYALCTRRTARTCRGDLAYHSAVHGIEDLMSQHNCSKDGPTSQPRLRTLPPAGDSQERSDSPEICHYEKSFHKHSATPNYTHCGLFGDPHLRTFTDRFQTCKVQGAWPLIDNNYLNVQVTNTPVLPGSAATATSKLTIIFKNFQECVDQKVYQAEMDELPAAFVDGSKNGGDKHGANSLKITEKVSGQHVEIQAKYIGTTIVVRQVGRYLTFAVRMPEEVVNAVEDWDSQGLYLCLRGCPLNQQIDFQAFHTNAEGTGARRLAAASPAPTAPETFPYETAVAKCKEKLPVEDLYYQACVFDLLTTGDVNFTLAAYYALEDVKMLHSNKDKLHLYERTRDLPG
The test is described as follows: SPR; method not named in Example 2.

The target of a further test is T3, soluble human RGMc (human, UniProt Q6ZVN8 36-400).
T3 construct: also called huRGMc; soluble hRGMc
T3 sequence: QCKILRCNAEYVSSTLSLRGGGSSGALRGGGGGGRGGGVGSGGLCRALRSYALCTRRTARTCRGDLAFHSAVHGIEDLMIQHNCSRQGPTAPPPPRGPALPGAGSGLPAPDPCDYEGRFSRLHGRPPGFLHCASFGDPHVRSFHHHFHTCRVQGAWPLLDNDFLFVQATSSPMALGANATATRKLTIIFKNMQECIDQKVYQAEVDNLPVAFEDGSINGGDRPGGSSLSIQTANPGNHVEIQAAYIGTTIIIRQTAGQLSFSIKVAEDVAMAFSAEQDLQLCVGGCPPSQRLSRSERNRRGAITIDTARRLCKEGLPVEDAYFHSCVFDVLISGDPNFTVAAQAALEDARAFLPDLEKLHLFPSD
The test is described as follows: SPR; method not named in Example 2.

T1 sequence (P55899 24-297, chain 1 of 2): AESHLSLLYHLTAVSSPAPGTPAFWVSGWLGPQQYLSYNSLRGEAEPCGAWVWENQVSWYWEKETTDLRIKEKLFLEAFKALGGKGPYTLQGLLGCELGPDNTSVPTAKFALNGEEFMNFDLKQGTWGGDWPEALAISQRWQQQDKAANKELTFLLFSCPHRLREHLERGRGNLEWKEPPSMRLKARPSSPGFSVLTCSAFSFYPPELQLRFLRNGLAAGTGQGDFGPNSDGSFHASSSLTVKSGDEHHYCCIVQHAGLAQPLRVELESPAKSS
T1 sequence (P61769 21-119, chain 2 of 2, further chain): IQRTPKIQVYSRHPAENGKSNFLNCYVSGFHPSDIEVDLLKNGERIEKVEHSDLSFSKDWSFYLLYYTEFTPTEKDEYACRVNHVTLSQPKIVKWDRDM

B1: hHA-008-QL (antibody, human IgG1, kappa, L234A L235A)
heavy: EVQLVESGGGLVQPGGSLRLSCAASGFTFSNYGMNWVRQAPGKGLEWIGMIYYDSSEKHYADSVKGRFTISRDNSKNTLYLQMNSLRAEDTAVYYCAKGTTPDYWGQGTMVTVSSASTKGPSVFPLAPSSKSTSGGTAALGCLVKDYFPEPVTVSWNSGALTSGVHTFPAVLQSSGLYSLSSVVTVPSSSLGTQTYICNVNHKPSNTKVDKKVEPKSCDKTHTCPPCPAPEAAGGPSVFLFPPKPKDQLMISRTPEVTCVVVDVSHEDPEVKFNWYVDGVEVHNAKTKPREEQYNSTYRVVSVLTVLHQDWLNGKEYKCKVSNKALPAPIEKTISKAKGQPREPQVYTLPPSREEMTKNQVSLTCLVKGFYPSDIAVEWESNGQPENNYKTTPPVLDSDGSFFLYSKLTVDKSRWQQGNVFSCSVLHEALHNHYTQKSLSLSPGK
light: DVVLTQSPLSLPVTLGQPASISCRSSQSLEESDGYTFLHWFQQRPGQSPRLLIYEVSTRFSGVPDRFSGSGSGTDFTLKISRVEAEDVGVYYCFQATHDPLTFGQGTKLEIKRTVAAPSVFIFPPSDEQLKSGTASVVCLLNNFYPREAKVQWKVDNALQSGNSQESVTEQDSKDSTYSLSSTLTLSKADYEKHKVYACEVTHQGLSSPVTKSFNRGEC
notes: hHA-008 with T250Q and M428L (QL) in the Fc besides L234A, L235A; kappa; also called hHA-008-QL (hIgG1mut(LALA)/QL/k)
What is called Kd is the free concentration of one partner at which half of the binding sites on the other are occupied at equilibrium, for simple one-to-one binding. Lower therefore signals tighter binding. What is called koff is the first-order rate constant of dissociation. Low readings indicate a long-lived complex, high ones a short-lived complex. Usually kon stands for a measure of how fast the partners come together. As for B1, the Kd in the test with FcRn was 900 nM and 882 nM. In the test with soluble human RGMa, this molecule yielded a Kd of 0.077 nM, an off-rate (koff) of 3.3e-05 s⁻¹ and an association rate constant (kon) of 430000 M⁻¹ s⁻¹. In the test with soluble human RGMc, this molecule returned a dissociation constant Kd of 0.12 nM, a dissociation rate constant (koff) of 0.00033 s⁻¹ and an on-rate constant (kon) of 2.7e+06 M⁻¹ s⁻¹.
